Test results published in PMC9536298.

Molecular target: T1, GST-ZPR1 (human, UniProt O75312 1-459)
T1 sequence: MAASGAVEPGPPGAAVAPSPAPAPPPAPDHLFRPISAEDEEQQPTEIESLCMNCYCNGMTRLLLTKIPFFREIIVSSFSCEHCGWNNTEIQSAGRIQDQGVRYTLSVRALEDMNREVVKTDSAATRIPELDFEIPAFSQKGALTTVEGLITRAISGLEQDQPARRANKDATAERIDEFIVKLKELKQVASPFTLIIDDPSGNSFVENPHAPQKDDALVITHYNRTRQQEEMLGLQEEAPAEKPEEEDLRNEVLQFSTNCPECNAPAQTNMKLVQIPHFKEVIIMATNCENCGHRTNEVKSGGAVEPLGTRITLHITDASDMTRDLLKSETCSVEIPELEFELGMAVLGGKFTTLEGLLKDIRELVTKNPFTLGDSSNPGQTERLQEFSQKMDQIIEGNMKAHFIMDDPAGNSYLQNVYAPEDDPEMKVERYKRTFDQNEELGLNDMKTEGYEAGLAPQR
Assay: EMSA

CGAAACTACCTTCAACTCCATCATGAAGTGTGACGTGGAC (ssDNA) [DNA* 40 nt]
binding result: binds
